Reference: PMC4303305 (Biochemistry, 2014)
Where a chain is given by its changes, count along the chain named. Numbers in names are those of the source. Where two headings read alike, the source gives them in different places.

B1: NP4(K38Q/R39Q/K125Q) (natural protein, Rhodnius prolixus, UniProt Q94734 22-205, looked up)
chain: ACTKNAIAQTGFNKDKYFNGDVWYVTDYLDLEPDDVPQQYCAALAAGTASGKLKEALYHYDPKTQDTFYDVSELQVESLGKYTANFKKVDKNGNVKVAVTAGNYYTFTVMYADDSSALIHTCLHQGNKDLGDLYAVLNRNKDAAAGDKVKSAVSAATLEFSKFISTKENNCAYDNDSLKSLLTK
B2: NP1(K1A) (natural protein, Rhodnius prolixus, UniProt Q26239 24-207, looked up)
chain: ACTKNALAQTGFNKDKYFNGDVWYVTDYLDLEPDDVPKRYCAALAAGTASGKLKEALYHYDPKTQDTFYDVSELQEESPGKYTANFKKVEKNGNVKVDVTSGNYYTFTVMYADDSSALIHTCLHKGNKDLGDLYAVLNRNKDTNAGDKVKGAVTAASLKFSDFISTKDNKCEYDNVSLKSLLTK
B3: native N-terminal NP1 with C-terminal His6 tag (natural protein, Rhodnius prolixus, UniProt Q26239 24-207, looked up)
chain: B2 chain with A1K

How the values were obtained:
[1] = biological target: the molecule itself; assay: SEC
[2] = biological target: the molecule itself; assay: SEC; remark: listed apart in the source

| Protein | stoichiometry N [1] | stoichiometry N [2] |
| --- | --- | --- |
| B1 | 2 | – |
| B2 | – | 2 |
| B3 | – | 2 |
